The text below walks through data of article PMC13281839.

The target in this experiment is N‐terminal half of fibrillin‐1, fragment rF90 (S19‐V1527) (UniProt P35555). Description: SPR.

Usually Kd stands for the concentration at which binding is half-saturated.

UniProt P35555, sequence (P35555 45-1527): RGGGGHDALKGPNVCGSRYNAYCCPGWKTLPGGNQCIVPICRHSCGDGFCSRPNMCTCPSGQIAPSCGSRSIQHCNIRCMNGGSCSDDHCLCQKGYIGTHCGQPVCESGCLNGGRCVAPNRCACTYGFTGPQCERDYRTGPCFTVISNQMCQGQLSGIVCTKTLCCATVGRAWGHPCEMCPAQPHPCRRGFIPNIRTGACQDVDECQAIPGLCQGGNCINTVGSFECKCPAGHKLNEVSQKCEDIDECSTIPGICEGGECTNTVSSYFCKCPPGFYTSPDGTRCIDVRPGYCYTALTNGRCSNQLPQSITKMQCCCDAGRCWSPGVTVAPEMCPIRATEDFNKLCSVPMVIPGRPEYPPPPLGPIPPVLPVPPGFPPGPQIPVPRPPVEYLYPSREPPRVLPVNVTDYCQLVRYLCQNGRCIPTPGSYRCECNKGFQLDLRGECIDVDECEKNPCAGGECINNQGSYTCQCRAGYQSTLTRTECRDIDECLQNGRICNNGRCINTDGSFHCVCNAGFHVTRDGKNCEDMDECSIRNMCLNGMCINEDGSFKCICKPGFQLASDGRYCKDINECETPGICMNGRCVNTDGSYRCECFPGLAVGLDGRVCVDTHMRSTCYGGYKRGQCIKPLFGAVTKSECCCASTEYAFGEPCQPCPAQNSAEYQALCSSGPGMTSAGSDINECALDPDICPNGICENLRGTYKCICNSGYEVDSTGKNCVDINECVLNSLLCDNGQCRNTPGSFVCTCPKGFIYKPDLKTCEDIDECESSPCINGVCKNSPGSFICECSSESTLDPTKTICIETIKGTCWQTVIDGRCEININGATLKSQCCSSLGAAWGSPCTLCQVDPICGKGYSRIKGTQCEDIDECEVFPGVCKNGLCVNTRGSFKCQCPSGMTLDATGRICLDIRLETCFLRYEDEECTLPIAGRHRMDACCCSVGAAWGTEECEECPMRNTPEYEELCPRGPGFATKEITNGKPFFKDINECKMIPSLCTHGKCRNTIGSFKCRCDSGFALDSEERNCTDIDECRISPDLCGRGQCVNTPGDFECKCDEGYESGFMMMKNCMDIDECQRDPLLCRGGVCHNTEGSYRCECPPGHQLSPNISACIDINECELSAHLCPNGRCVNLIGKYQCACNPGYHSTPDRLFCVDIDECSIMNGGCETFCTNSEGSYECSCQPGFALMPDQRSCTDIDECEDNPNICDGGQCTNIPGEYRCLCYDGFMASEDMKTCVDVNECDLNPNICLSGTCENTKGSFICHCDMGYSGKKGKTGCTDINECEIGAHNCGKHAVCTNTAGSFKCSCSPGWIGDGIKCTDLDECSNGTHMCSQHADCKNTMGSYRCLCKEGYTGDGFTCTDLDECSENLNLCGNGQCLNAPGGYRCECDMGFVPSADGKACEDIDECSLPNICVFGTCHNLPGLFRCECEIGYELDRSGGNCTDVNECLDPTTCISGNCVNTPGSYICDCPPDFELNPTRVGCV

Take “BMP‐7 CPLX (BMP‐7 growth factor‐prodomain complex) (from UniProt P18075 293-431)”: the Kd was 7 nM.
